Laboratory results published in the nanobody polyreactivity screen of Harvey et al. (2022).

Experiment: yeast display, Sf9 membrane polyspecificity reagent, FACS + sequencing; frameworks hold sequencing errors
In short: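 Galactose-induced (36–48 hours) yeast carrying a synthetic nanobody display library were exposed to 10% biotinylated, detergent-solubilized Sf9 membrane reagent at 4 °C for 1 hour. FACS followed streptavidin microbead enrichment, using low and high (top ~1%) gates for expression (anti-HA) and reagent binding (streptavidin). Colony PCR, MiSeq 2 × 250 sequencing and CDR-length filtering followed. Labels for polyreactivity reflect the gate of origin.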

Row | Sequence | polyreactivity (PSR sort gate)
1 | QVQLVESGGGLVQAGGSLRLSCAASGFIFTSYAMGWYRQAPGKERELVAAIDYSGGSTYYADSVKGRFTISRDNAKNTVYLQMNSLKPEDTAVYYCAAGDGLWPGSQTYDYWGQGTQVTVSS | low polyreactivity
2 | QVQLVESGGGLVQAGGSLRLSCAASGFIFTSYAMGWYRQAPGKERELVAAITRSGGRTYYADSVKGRFTISRDNAKNTVYLQMNSLKPEDTAVYYCAAVTFYQSPARGYWGQGTQVTVSS | high polyreactivity
3 | QVQLVESGGGLVQAGGSLRLSCAASGFIFTSYAMGWYRQAPGKERELVATISSSGGSTTYADSVKGRFTISRDNAKNTVYLQMNSLKPEDTAVYYCAAAVYVVRYVSLYRRYYWGQGTQVTVSS | high polyreactivity
4 | QVQLVESGGGLVQAGGSLRLSCAASGFIFTYYAMGWYRPAPGKERELVATISSGGGSTYYADSVKGRFTISRDNAKNTVYLQMNSLKPEDTAVYYCAASRRITGIRYLNRYEYWGQGTQVTVSS | high polyreactivity
5 | QVQLVESGGGLVQAGGSLRLSCAASGFIFTYYAMGWYRQAPGKERELVARITSGGASTYYADSVKGRFTISRDNAKNTVYLQMNSLKPEDTAVYYCAAQARGWGYDYWGQGTQVTVSS | low polyreactivity
6 | QVQLVESGGGLVQAGGSLRLSCAASGFIFVINAMGWYRQAPGKERELVAGISSGGRTNYADSVKGRFTISRDNAKNTVYLEMKSLKPEDTAVYYCAAAPTYKWRRKNYDYWGQGTQVTVSS | high polyreactivity
7 | QVQLVESGGGLVQAGGSLRLSCAASGFIFVKYAMGWYRQAPGKEREFVAAISQSGGNTYYADSVKGRFTISRDNAKNTVYLQMNSLKPEDTAVYYCNAKSYTRRSYYTPTVPGDYWGQGTQVTVSS | low polyreactivity
8 | QVQLVESGGGLVQAGGSLRLSCAASGFIFVLNAMGWYRQAPGKERELVAAIRWSGGSTYYADSVKGRFTISRDNAKNTVYLQMNSLKPEDTAVYYCAARLWLKVQYLRFFGYDYWGQGTQVTVSS | low polyreactivity
9 | QVQLVESGGGLVQAGGSLRLSCAASGFIFVNYMGWYRQAPGKERELVAAISRGGSTNYADSVKGRFTISRDNAKNTVYLQMNSLKPEDTAVYYCAAETWYSGYTYDYWGQGTQVTVSS | low polyreactivity
10 | QVQLVESGGGLVQAGGSLRLSCAASGFIFVPNAMGWYRQAPGKERELVAAIRWSDGTTYYADSVKGRFTISRDNAKNNVYLQMNSLKPEDTAVYYCATDHDPRYDYWGQGTQVTVSS | high polyreactivity
11 | QVQLVESGGGLVQAGGSLRLSCAASGFIFVPNTMGWYRQAPGKERELVAAITSVGSTNYADSVKGRFTISRDNAKNTVYLQMNSLKPEDTAVYYCPATLYYQYGGDYWGQGTQVTVSS | low polyreactivity
12 | QVQLVESGGGLVQAGGSLRLSCAASGFIFVPYAMGWYRQAPGKERELVAAISSGGSTYYADSVKGRFTISRDNAKNTVYLQMNSLKPEDTAVYYCNKRYYLYQYRYDYWGQGTQVTVSS | low polyreactivity
13 | QVQLVESGGGLVQAGGSLRLSCAASGFIFVPYAMGWYRQAPGKERELVASITYTGGSTYYADSVKGRFTISRDNAKNTVYLQMNSLKPEDTAVYYCASRYQYWRLHMDYWGQGTPVTVSS | low polyreactivity
14 | QVQLVESGGGLVQAGGSLRLSCAASGFIFVRYAMGWYRQAPGKEREFVAAISGGAGSTYYADSVKGRFTISRDNAKNTVYLQMNSLKPEDTAVYYCNRVRSLRYGYWGQGTQVTVSS | high polyreactivity
15 | QVQLVESGGGLVQAGGSLRLSCAASGFIFVSYAMGWYRQAPGKERELVAAIDRIGGITYYADSVKGRFTIARDIAKNTVYLQMNSLKPEDTAVYYCAAAARYATVRVGREYYWGQGTQVTVSS | low polyreactivity
16 | QVQLVESGGGLVQAGGSLRLSCAASGFIFVTYAMGWYRQAPGKERELVAAITNSGGTTYYADSVKGRFTISRDNAKNTVYLQMISLKPEDSAVYYCNKPYGAETAHREFDYWGQGTQVTVSS | low polyreactivity
17 | QVQLVESGGGLVQAGGSLRLSCAASGFIFVTYAMGWYRQAPGKETELVAAINNSGGTTYYADSVKGRFTISRDNAKNTVYLQMNSLKPEDTAVYFCNKRYGAETAHREFDYWGQGTQVTVSS | low polyreactivity
18 | QVQLVESGGGLVQAGGSLRLSCAASGFIFVVYAMGWYRQAPGTERELVATISSGGGTYYADSVKGRFTISRDNAKITVYLQMNSLKPEDTAVYYCAARRRRLYHFGGNNYWGQGTLVTVSS | high polyreactivity
19 | QVQLVESGGGLVQAGGSLRLSCAASGFIFVWYAMGWYRQAPGKERELVAGITASGGSTYYADSVKGRFTISRDNAKNTVYLQMNSLKPEDTAVYYCAADAWPLWLKLTPTSGGYWGQGTQVTVSS | low polyreactivity
20 | QVQLVESGGGLVQAGGSLRLSCAASGFIFVYNDMGWYRPAPGKERELVAAISTSGGSTYYADSVKGRFTISRDNAKNTVYLQMNSLKPEDTAVYYCAAGPSYYPFFWPDFEYWGQGTQVTVSS | high polyreactivity
21 | QVQLVESGGGLVQAGGSLRLSCAASGFIFVYYAMGWYRQAPGKERELVAAITSDVNTYYADSVKGRFSISRDNAKNTVYLHMNSLKPEDTAVDYCNADADDYRDYQDYDYWGQGSQVTVSS | low polyreactivity
22 | QVQLVESGGGLVQAGGSLRLSCAASGFIFWDYAMGLYRQAPGKERELVAAISDSGGDTYYADSVKGRFTISRDNAKNTVYFQINSLKPEDTAVYYCSADVELWVFRGQQYDYWGQGTQVTVSS | low polyreactivity

Row | Sequence | polyreactivity (PSR sort gate)
23 | QVQLVESGGGLVQAGGSLRLSCAASGFIFWDYAMGWYRQAPGKEREFVATISLSVGSTYYADSVKGRFTISRDNAKNTVYLQMNSLKPEDTAVYYCAAVTWGEGFDYWGQGTQVTVSS | low polyreactivity
24 | QVQLVESGGGLVQAGGSLRLSCAASGFIFWLNAMGWYRQAPGKERELVAASSIGGRTNYADSVKGRFTISRDNAKNTVYLQMNSLKPDDTAVYYCNKDYRSVYKGRGFDYCGQGTQVTVSS | low polyreactivity
25 | QVQLVESGGGLVQAGGSLRLSCAASGFIFWPNAMGWYRQPPGKERELVAAISYSGGSTYYADSVKGRFTISRDNAKNTVYLQMNSLKPEDTAVYYCAKLPYRRVDYGYWGQGTQVTVSS | high polyreactivity
26 | QVQLVESGGGLVQAGGSLRLSCAASGFIFWQYAMGWYRQAPGKERELVAAITSRGGSTYYADSVKGRFTISRDNAKNTVYLKMNSLKPEDTAVYYCARLYPRHLNGDYWGQGTQVTVSS | high polyreactivity
27 | QVQLVESGGGLVQAGGSLRLSCAASGFIFWQYTLGWYRQAPGKERELVAAINGGSSTYYADSVKGRFTISRDNAKNTVYVQKNSRKPEDTAVYYCAADRYLYHDRYEYDYWGQGTQVTVSS | high polyreactivity
28 | QVQLVESGGGLVQAGGSLRLSCAASGFIFWRNAMGWYSQAPGQERELVAAITSGDRTNYADSVKGRFTISRDNAKNTVYLQMNSLKPEDTAVYYCNARRYRLVSYDYWGQGTQVTVSS | low polyreactivity
29 | QVQLVESGGGLVQAGGSLRLSCAASGFIFWRNTMGWYRQAPGKERELVAVITRGGSTYYADSVKGRFTISRDNAKNTVYLQMNSLKPEDTAVYYCAARNDYYKTFSGYDYWGQGTQVTVSS | low polyreactivity
30 | QVQLVESGGGLVQAGGSLRLSCAASGFIFWSYAMGWYRQAPGKERELVAAIDLTGGSTYYADSVKGRFTISRDNAKNTVYLQMNSLKPEDTAVYYCNADGDTYAFTNSDSGFDYWGQGTQVSVSS | low polyreactivity
31 | QVQLVESGGGLVQAGGSLRLSCAASGFIFWTYAMGWYRQAPGKERELVARISWSGGSTYYADSVKGRFTISRDNAKNTVYLQMNSLKPEDTAVYYCARLATLYESIEYDYWGQGTQVTVSS | low polyreactivity
32 | QVQLVESGGGLVQAGGSLRLSCAASGFIFWYNAMGWYRQAPGKERELVASISGSGGSTYYADSVKGRFTISRDNAKNTVYLQMNSLKPEDTAVYYCAVYFFSFWGQGTQVTVSS | low polyreactivity
33 | QVQLVESGGGLVQAGGSLRLSCAASGFIFWYYAMGWSRQAPGKERELVAAISYGGGSTYYADSVKGRFTISRDNAKNTVYLQMNSLKPEDTAVYYCAAAPRWKASRLYYWGQGTQVTVSS | high polyreactivity
34 | QVQLVESGGGLVQAGGSLRLSCAASGFIFWYYAMGWYRHAPGKERELVAVISSGSSTHYADSVKGRFTISRDNAKNTVYLQMNSLKPEDTAVDYCAARIRTRYFTGYYYWGQGTQVSVSS | high polyreactivity
35 | QVQLVESGGGLVQAGGSLRLSCAASGFIFWYYAMGWYRQAPGKERELVAAINSSGGSTYYADSVKGRFTISRDNAKNTVSLQMNSLKPEDTAVYYCAARAYQRGNYWGQGTQVTVSS | high polyreactivity
36 | QVQLVESGGGLVQAGGSLRLSCAASGFIFYAYVMGWYRQAPGKERELVAAISRNGGSTYYADSVKGRFTISRDNAKNTVYLQMKSLKPEDTAVYYCAALSYYRYSQEDDYWGQGTQVTVSS | high polyreactivity
37 | QVQLVESGGGLVQAGGSLRLSCAASGFIFYDYAMGWYRQAPGKERELVAAISSGGSTNYADSVKGRFTISRDNAKNTVYLQMNSLIPEDTEVYYCAADDRSYATWKRDYDYWGQGTQVTVSS | low polyreactivity
38 | QVQLVESGGGLVQAGGSLRLSCAASGFIFYDYAMGWYRQAPGKERELVAAITVDGGTTYYADSVKGRFTISRDNAKNTVYLQMNSLKPEDTAVYYCAADTYYGFDSNYEYCGQGTQVTVSS | low polyreactivity
39 | QVQLVESGGGLVQAGGSLRLSCAASGFIFYDYAMGWYRQATGKERELVAGITDSGGSTSYADSVKGRFTISRDNAKNTDYLQMNSLKPEDTAVYYCAADNYVRAGINYDYWGQGTQVTVSS | low polyreactivity
40 | QVQLVESGGGLVQAGGSLRLSCAASGFIFYEYAMGWYRQATGKERELVAAITYSAGSTYYADSVKGRFTISRDNAKNTVYLQMNSLKPEDTAVYFCAKVDSEYRQVIQQEDDYWGQGTQVTVSS | low polyreactivity
41 | QVQLVESGGGLVQAGGSLRLSCAASGFIFYFYAMGWYRQATGKEMELVAAISDGVSTYYADSVKGRFTISRDNAKNTVYLQMNCLKPEDTAVYYCAVSRGDDPEFDYWGQGTQVTVSS | low polyreactivity
42 | QVQLVESGGGLVQAGGSLRLSCAASGFIFYGNAMAWSRQAPGKEREFVAAINGRGVSTYYADSVKGRFTISRDNAKNSDYLQMNSLKPEDTAVYYCNKVYWGRGPLEYWGQGTQVTVSS | high polyreactivity
43 | QVQLVESGGGLVQAGGSLRLSCAASGFIFYGNTMGWYRQAPGKERELVAAISGSTGGTYYADSVKGRFTISRDNAKNTVYLQMNSLKPEDTAVYYCAAVVPWYASYSRYYYWGQGTQVTVSS | high polyreactivity
